Assay results published in paper PMC3507683, “Crystal Structure of the Hexachlorocyclohexane Dehydrochlorinase (LinA-Type2): Mutational Analysis, Thermostability and Enantioselectivity” (PLoS ONE, 2012).

Molecular target: the molecule itself
Experiment: crystal structure; hanging drop, 293 K, 0.1 M trisodium citrate pH 5.5, 3% PEG 3350; space group P6(3)22; seven subunits in the asymmetric unit; 3.5 Å

B1: Hexachlorocyclohexane dehydrochlorinase LinA-type2 (enzyme, UniProt P51697 1-156, looked up)
chain: MSDLDRLASRAAIQDLYSDQLIGVDKRQEGRLASIWWDDAEWTIEGIGTYKGPEGALDLANNVLWPMYHETIHYGTNLRLEFVSADKVNGIGDVLCLGNLVEGNQSILIAAVYTNEYERRDGVWKFSKLNGCMNYFTPLAGIHFAPPGIHFAPSGA
notes: LinA-type2, gamma-hexachlorocyclohexane dehydrochlorinase variant obtained by PCR from metagenomic DNA of an HCH-contaminated soil (GenBank EU863871); It differs by 10 residues from LinA-type1 (= LinA-UT26 of Sphingobium japonicum UT26, 156 amino acids); The printed primers run from the ATG start codon to the last codon, without a stop codon; Homotrimer; also called -type2 protein; source: E. …
Q: With B1 as the protein, how does the “stoichiometry N” value read?
A: 3
